# Source: patent publication US20150203577A1 (Chugai, published 2015)
# Substitutions are numbered along the chain they refer to.
# T1: mouse FcγRII extracellular domain, C-terminally His-tagged (mouse, UniProt P08101 30-210)
# T1 construct: the whole entry is named; also called mFcγRII; mFcgRII
# T1 sequence: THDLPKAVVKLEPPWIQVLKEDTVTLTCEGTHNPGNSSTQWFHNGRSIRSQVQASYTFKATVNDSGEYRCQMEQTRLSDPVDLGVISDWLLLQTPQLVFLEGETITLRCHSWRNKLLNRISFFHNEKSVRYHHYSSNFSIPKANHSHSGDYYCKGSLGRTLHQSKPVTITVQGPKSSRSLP
# T2: mouse FcγRIII extracellular domain, C-terminally His-tagged (mouse, UniProt P08508 31-215)
# T2 construct: the whole entry is named; also called mFcγRIII; mFcgRIII
# T2 chain: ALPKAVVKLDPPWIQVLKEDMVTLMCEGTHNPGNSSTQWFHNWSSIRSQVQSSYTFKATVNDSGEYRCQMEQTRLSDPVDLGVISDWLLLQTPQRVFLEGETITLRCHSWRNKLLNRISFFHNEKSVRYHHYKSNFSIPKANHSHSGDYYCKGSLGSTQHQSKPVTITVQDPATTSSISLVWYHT
# B1: H237-MB448/MRAL-k0 (antibody, mouse IgG1, kappa)
# heavy: QVQLQESGPGLVKPSETLSLTCAVSGHSISHDHAWSWVRQPPGEGLEWIGFISYSGITNYNPSLQGRVTISRDNSKNTLYLQMNSLRAEDTAVYYCARSLARTTAMDYWGEGTLVTVSSAKTTPPSVYPLAPGSAAQTNSMVTLGCLVKGYFPEPVTVTWNSGSLSSGVHTFPAVLQSDLYTLSSSVTVPSSTWPSETVTCNVAHPASSTKVDKKIVPRDCGCKPCICETYEVEDVFIFPPKPKDVLTITLTPKVTCVVVDISKDDPEVQFSWFVDDVEVHTAQTQPREEQFNSTFRSVSELPIMHQDWLNGKEFKCRVDSAAFPAPIEKTISKTKGRPKAPQVYTIPPPKEQMAKDKVSLTCMITDFFPEDITVEWQWNGQPAENYKNTQPIMDTDGSYFVYSKLNVQKSNWEAGNTFTCSVLHEGLHNHHTEKSLSHSPGK
# light: not shown
# notes: copies: 2 + 2
# B2: H237-MB477/MRAL-k0 (antibody, mouse IgG1, kappa)
# heavy: B1 heavy with T230P, Y231N, S263A, D320N
# light: not shown
# notes: copies: 2 + 2
# B3: H237-MB464/MRAL-k0 (antibody, mouse IgG1, kappa)
# heavy: B1 heavy with S263A, D320N
# light: not shown
# notes: copies: 2 + 2
# B4: H237-MB454/MRAL-k0 (antibody, mouse IgG1, kappa)
# heavy: B1 heavy with D320N, P327F
# light: not shown
# notes: copies: 2 + 2
# B5: H237-MB465/MRAL-k0 (antibody, mouse IgG1, kappa)
# heavy: B1 heavy with Q291L, D320N
# light: not shown
# notes: copies: 2 + 2
# B6: H237-MB457/MRAL-k0 (antibody, mouse IgG1, kappa)
# heavy: B1 heavy with D320N, E329Y
# light: not shown
# notes: copies: 2 + 2
# B7: H237-MB466/MRAL-k0 (antibody, mouse IgG1, kappa)
# heavy: B1 heavy with D320N, A322D
# light: not shown
# notes: copies: 2 + 2
# B8: H237-MB453/MRAL-k0 (antibody, mouse IgG1, kappa)
# heavy: B1 heavy with D320N, P327D
# light: not shown
# notes: copies: 2 + 2
# B9: H237-MB456/MRAL-k0 (antibody, mouse IgG1, kappa)
# heavy: B1 heavy with D320N, E329N
# light: not shown
# notes: copies: 2 + 2
# B10: H237-MB451/MRAL-k0 (antibody, mouse IgG1, kappa)
# heavy: B1 heavy with D320N, A326G
# light: not shown
# notes: copies: 2 + 2
# B11: H237-MB467/MRAL-k0 (antibody, mouse IgG1, kappa)
# heavy: B1 heavy with D320N, A323G
# light: not shown
# notes: copies: 2 + 2
# B12: H237-MB462/MRAL-k0 (antibody, mouse IgG1, kappa)
# heavy: B1 heavy with D320N, S333K
# light: not shown
# notes: copies: 2 + 2
# B13: H237-MB452/MRAL-k0 (antibody, mouse IgG1, kappa)
# heavy: B1 heavy with D320N, A326Q
# light: not shown
# notes: copies: 2 + 2
# B14: H237-MB449/MRAL-k0 (antibody, mouse IgG1, kappa)
# heavy: B1 heavy with D320L
# light: not shown
# notes: copies: 2 + 2
# B15: H237-MB460/MRAL-k0 (antibody, mouse IgG1, kappa)
# heavy: B1 heavy with D320N, T331Y
# light: not shown
# notes: copies: 2 + 2
# B16: H237-MB450/MRAL-k0 (antibody, mouse IgG1, kappa)
# heavy: B1 heavy with D320M
# light: not shown
# notes: copies: 2 + 2
# B17: H237-MB463/MRAL-k0 (antibody, mouse IgG1, kappa)
# heavy: B1 heavy with D320N, S333W
# light: not shown
# notes: copies: 2 + 2
# B18: H237-MB461/MRAL-k0 (antibody, mouse IgG1, kappa)
# heavy: B1 heavy with D320N, S333I
# light: not shown
# notes: copies: 2 + 2
# B19: H237-MB458/MRAL-k0 (antibody, mouse IgG1, kappa)
# heavy: B1 heavy with D320N, E329V
# light: not shown
# notes: copies: 2 + 2
# B20: H237-MB455/MRAL-k0 (antibody)
# heavy: B1 heavy with D320N, P327Y
# light: not shown
# notes: copies: 2 + 2
# B21: H237-MB459/MRAL-k0 (antibody, mouse IgG1, kappa)
# heavy: B1 heavy with D320N, T331N
# light: not shown
# notes: copies: 2 + 2
# Target: T1, mouse FcγRII extracellular domain, …
# Assay: SPR Biacore T200, KD ratio
# Description: (§1) The antibody H chain variable region used was the variable region H237 (SEQ ID NO: 1) of the H chain VH3-IgG1 of the anti-IL-6 receptor antibody Fv4-IgG1 described in WO2009/125825. The antibody L chain commonly used was the L chain MRAL-k0 (SEQ ID NO: 2) of the anti-IL-6 receptor antibody tocilizumab. […] The resulting variant groups were designated as MB397 variants and MB390 variants, respectively. These variants were expressed and purified by the method of Reference Example 1 and evaluated for their binding to mFcγRII and mFcγRIII by the method of Reference Example 2 using Biacore T200.
# (§2) Each altered antibody was analyzed for its interaction with each Fcγ receptor prepared above using Biacore T100 (GE Healthcare Japan Corp.), Biacore T200 (GE Healthcare Japan Corp.), Biacore A100, or Biacore 4000. The running buffer used was HBS-EP+ (GE Healthcare Japan Corp.). The assay temperature was set to 25° C. The sensor chips used were chips prepared by immobilizing Protein L (ACTIGEN or BioVision) onto Series S Sensor Chip CM5 (GE Healthcare Japan Corp.) or Series S Sensor Chip CM4 (GE Healthcare Japan Corp.) by the amine coupling method.
# (§3) In order to calculate the KD value of each altered antibody for FcγR, kinetic analysis was conducted according to the following method: first, the antibody of interest was captured onto any of these chips and allowed to interact with mFcγR diluted with a running buffer. For the obtained sensorgram, the assay results were globally fit into the 1:1 Langmuir binding model using Biacore Evaluation Software to calculate an association rate constant ka (L/mol/s) and a dissociation rate constant kd (1/s). From these values, the dissociation constant KD (mol/L) was calculated.
Binder,relative mFcγRII-binding activity (MB397 = 1),relative mFcγRII-binding activity (mIgG1 = 1),relative mFcγRII-binding activity (MB390 = 1)
B1,0.95 fold,525 fold,
B2,,196 fold,0.38 fold
B3,0.16 fold,88.5 fold,
B4,0.53 fold,295 fold,
B5,0.35 fold,192 fold,
B6,0.36 fold,202 fold,
B7,0.81 fold,449 fold,
B8,0.21 fold,118 fold,
B9,0.12 fold,67.9 fold,
B10,0.11 fold,60.1 fold,
B11,0.49 fold,271 fold,
B12,0.39 fold,214 fold,
B13,0.08 fold,46.9 fold,
B14,0.28 fold,154 fold,
B15,0.6 fold,332 fold,
B16,0.68 fold,377 fold,
B17,0.55 fold,307 fold,
B18,0.45 fold,247 fold,
B19,0.46 fold,253 fold,
B20,0.6 fold,332 fold,
B21,0.51 fold,285 fold,

# Target: T2, mouse FcγRIII extracellular domain, …
# Assay: SPR Biacore T200, KD ratio
# Description: as §1, §2, §3
Binder,relative mFcγRIII-binding activity (MB397 = 1),relative mFcγRIII-binding activity (mIgG1 = 1),relative mFcγRIII-binding activity (MB390 = 1)
B1,1.3 fold,25.1 fold,
B2,,3 fold,0.25 fold
B3,0.39 fold,7.6 fold,
B4,1.04 fold,20 fold,
B5,0.77 fold,15 fold,
B6,0.7 fold,13.6 fold,
B7,1.66 fold,32 fold,
B8,0.49 fold,9.5 fold,
B9,0.23 fold,4.5 fold,
B10,0.5 fold,9.7 fold,
B11,0.99 fold,19.2 fold,
B12,0.78 fold,15.1 fold,
B13,0.23 fold,4.4 fold,
B14,0.56 fold,10.7 fold,
B15,1.1 fold,21.2 fold,
B16,1.18 fold,22.7 fold,
B17,1.12 fold,21.6 fold,
B18,0.97 fold,18.8 fold,
B19,0.81 fold,15.7 fold,
B20,1.38 fold,26.6 fold,
B21,1.06 fold,20.5 fold,
